In patent US20170051047A1:
Read-outs that look alike come from different tables or passages of the source.

Legend:
[1] = biological target: T1, Clostridium difficile toxin A (whole toxin A) (Clostridium difficile), P16154; details: remark: other sources report otherwise
[2] = biological target: T1, Clostridium difficile toxin A (whole …); details: remark: other sources report otherwise; remark: listed apart in the source

B1: CAN20G2 (antibody, V domains shown)
VH: QIQLVQSGPEVKKPGETVKISCKASGYTFTNQGMNWVKQAPGKGLKWMGWINTNTGEPTYTEEFKGRFAFSLETSASTAYLQINNLKNEDTATYFCYVNYDYYTMDFWGQGTSVTVSS
VL: QVVLTQSPAIMSASLGDRVTMTCTASSSVISTYLHWYQQKPGSSPKLWIYSTSTLASGVPPRFSGSGSGTSYSLTISSMEAEDAATYYCLQYHRSPRTFGGGTKLEIK
Work on B1 yielded a Kd [1] of 0.00419 nM, a koff [1] of 4.35e-07 s⁻¹ and a kon [1] of 104000 M⁻¹ s⁻¹. The Kd [2] was 0.166 nM, the koff [2] was 1.8e-05 s⁻¹ and the kon [2] was 108000 M⁻¹ s⁻¹.
